Laboratory results reported in patent US20230151091A1 (NEW YORK UNIVERSITY, published 2023).
One block for each binder: values may come before it.

Assays:
[1] = molecular target: T1, hECD: full-length extracellular region of human MuSK (E22 to T495) with C-terminal Avi- and His6-tags (human, UniProt O15146 22-495, biotinylated in vitro using the BirA enzyme); test: bead-binding assay, IgG format: biotinylated antigen on streptavidin beads, flow cytometry, 1:1 fit; average ± s.d., n=3
T1 construct: also called human ECD; not shown: Avi- and His6-tags
T1 sequence: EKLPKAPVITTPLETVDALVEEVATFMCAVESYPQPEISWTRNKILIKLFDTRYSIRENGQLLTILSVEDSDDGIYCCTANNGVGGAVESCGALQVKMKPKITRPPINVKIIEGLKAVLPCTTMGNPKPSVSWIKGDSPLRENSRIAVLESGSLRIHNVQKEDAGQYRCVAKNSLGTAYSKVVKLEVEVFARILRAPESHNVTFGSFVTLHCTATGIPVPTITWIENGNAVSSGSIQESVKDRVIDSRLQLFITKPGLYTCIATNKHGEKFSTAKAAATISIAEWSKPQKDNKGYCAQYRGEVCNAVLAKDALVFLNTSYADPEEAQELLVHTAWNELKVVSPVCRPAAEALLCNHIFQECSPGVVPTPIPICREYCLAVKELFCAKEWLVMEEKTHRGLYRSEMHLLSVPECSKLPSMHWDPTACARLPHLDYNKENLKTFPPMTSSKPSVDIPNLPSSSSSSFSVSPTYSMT

[2] = molecular target: T2, mFz: Fz domain and C-terminal flanking sequence of mouse MuSK (D307 to T494) with C-terminal Avi- and … (mouse, UniProt Q61006 307-494, limits assumed, biotinylated in vitro using the BirA enzyme); test: as above
T2 construct: also called mouse Fz; not shown: Avi- and His6-tags
T2 sequence (looked up): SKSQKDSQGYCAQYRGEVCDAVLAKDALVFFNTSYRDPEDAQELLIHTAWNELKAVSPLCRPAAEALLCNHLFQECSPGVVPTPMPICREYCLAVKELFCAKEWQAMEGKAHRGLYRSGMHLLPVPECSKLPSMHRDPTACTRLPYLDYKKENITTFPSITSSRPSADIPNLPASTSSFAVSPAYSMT

[3] = molecular target: T3, mECD: full-length extracellular region of mouse MuSK (E22 to T494) with C-terminal Avi- and His6-tags (mouse, UniProt Q61006 22-494, biotinylated in vitro using the BirA enzyme); test: as above
T3 construct: range 22-494; also called mouse ECD; not shown: Avi- and His6-tags
T3 sequence (looked up): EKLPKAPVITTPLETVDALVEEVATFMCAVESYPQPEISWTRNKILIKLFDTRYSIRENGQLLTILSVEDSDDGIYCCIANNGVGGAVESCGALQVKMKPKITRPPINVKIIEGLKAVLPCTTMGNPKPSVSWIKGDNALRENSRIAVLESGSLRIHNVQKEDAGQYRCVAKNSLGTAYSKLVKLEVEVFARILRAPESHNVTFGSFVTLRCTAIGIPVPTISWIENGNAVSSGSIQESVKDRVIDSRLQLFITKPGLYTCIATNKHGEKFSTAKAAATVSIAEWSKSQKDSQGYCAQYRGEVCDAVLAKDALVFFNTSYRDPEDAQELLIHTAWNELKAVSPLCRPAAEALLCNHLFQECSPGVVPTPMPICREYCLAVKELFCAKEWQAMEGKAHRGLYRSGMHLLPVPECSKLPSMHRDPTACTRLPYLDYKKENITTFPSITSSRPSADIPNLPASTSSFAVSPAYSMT

[4] = molecular target: T4, hFz: Fz domain and C-terminal flanking sequence of human MuSK (K314-T495) with C-terminal Avi- and His6-tags (human, UniProt O15146 314-495, biotinylated in vitro using the BirA enzyme); test: as above
T4 construct: also called human Fz; not shown: Avi- and His6-tags
T4 sequence: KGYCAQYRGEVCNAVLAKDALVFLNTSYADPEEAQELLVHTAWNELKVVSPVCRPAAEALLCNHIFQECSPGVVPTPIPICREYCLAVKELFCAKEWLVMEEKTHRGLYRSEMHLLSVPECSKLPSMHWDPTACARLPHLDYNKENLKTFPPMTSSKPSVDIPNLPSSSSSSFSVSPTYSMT

[5] = molecular target: T5, mouse MuSK, endogenous (C2C12 myotubes; neuromuscular synapses of mice) (mouse, UniProt Q61006 22-868); test: in vivo: wildtype mice injected i.p., diaphragm stained two days later with anti-human F(ab')2 Alexa 647 and Alexa 488-alpha-BGT; ratio of signal intensities at the synapse [continued]
T5 construct: whole, on cells; also called MuSK at the synapse; synaptic MuSK
T5 sequence (looked up): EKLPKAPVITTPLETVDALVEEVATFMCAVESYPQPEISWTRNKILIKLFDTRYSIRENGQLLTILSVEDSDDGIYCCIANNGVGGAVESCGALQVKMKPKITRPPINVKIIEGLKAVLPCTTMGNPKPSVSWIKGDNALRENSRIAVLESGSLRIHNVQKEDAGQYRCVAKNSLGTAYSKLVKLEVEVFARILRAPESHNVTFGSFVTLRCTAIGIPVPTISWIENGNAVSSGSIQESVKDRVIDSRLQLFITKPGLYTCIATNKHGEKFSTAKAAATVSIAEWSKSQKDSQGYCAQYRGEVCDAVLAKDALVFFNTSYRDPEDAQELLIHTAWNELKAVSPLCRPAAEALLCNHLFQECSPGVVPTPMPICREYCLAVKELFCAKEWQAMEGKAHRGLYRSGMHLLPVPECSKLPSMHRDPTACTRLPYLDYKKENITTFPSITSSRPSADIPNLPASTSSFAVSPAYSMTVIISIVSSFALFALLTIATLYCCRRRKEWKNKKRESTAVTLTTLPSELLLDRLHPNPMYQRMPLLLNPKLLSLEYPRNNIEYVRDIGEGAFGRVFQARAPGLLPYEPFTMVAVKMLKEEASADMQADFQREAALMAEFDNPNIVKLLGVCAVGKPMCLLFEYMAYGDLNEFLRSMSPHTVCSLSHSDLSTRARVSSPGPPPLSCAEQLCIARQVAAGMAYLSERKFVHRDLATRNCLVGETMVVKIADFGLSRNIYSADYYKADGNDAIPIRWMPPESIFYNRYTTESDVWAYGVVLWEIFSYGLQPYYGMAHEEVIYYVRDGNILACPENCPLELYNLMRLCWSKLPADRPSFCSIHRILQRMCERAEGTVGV

rat MuSK [6] = molecular target: T6, rat MuSK (rat, UniProt Q62838 22-494, limits assumed); test: Biacore, MuSK on chip (200RU), 66.7 nM mAb, dissociation pH 7.4
T6 construct: Coated on Biacore chip (200RU) or ELISA plate
T6 sequence (looked up): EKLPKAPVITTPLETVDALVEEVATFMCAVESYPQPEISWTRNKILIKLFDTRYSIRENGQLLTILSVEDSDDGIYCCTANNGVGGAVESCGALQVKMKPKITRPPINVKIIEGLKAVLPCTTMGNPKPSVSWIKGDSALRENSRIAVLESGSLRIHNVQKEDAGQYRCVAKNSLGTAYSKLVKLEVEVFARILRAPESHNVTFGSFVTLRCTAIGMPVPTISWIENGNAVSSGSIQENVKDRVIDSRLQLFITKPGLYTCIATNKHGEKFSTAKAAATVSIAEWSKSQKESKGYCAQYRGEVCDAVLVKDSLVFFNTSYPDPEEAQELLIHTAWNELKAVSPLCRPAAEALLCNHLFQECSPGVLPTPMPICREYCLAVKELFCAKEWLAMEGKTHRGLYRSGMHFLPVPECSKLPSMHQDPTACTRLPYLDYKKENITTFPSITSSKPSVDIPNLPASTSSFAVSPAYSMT
Procedure: (§1) For affinity determination, a CMS chip was coated with cynomolgus monkey, rat and mouse MuSK (200RU) and 66.7 nM of antibody was applied and kinetic parameters calculated (Table 8). The following conclusions could be drawn: (1) 3B2g1m3 and 3B2g2m3 (m3 variants) show significant drop in affinity for MuSK for all species tested; (2) 3B2g1m2 and 3B2g2m2 (m2 variants) show some drop in affinity for MuSK; (3) 3B2g1m1, 3B2g2m1, 3B2g1m4, 3B2g2m4 (ml and m4 variants) show no drop in affinity for MuSK for all species tested; and (4) for all clones there is no difference between g1 and g2 variants (VL methionine versus serine in CDR3).

cynomolgus monkey MuSK [7] = molecular target: T7, cynomolgus monkey MuSK (cynomolgus monkey, UniProt A0A2K5USF6 24-487); test: as above
Procedure: as §1

mouse MuSK [8] = molecular target: T8, mouse MuSK (mouse, UniProt Q61006 22-494, limits assumed); test: as above
T8 construct: Coated on ELISA plates or on the Biacore chip; also called full length mouse MuSK; mouse MuSK (in house produced in HEK293 cells)
T8 sequence (looked up): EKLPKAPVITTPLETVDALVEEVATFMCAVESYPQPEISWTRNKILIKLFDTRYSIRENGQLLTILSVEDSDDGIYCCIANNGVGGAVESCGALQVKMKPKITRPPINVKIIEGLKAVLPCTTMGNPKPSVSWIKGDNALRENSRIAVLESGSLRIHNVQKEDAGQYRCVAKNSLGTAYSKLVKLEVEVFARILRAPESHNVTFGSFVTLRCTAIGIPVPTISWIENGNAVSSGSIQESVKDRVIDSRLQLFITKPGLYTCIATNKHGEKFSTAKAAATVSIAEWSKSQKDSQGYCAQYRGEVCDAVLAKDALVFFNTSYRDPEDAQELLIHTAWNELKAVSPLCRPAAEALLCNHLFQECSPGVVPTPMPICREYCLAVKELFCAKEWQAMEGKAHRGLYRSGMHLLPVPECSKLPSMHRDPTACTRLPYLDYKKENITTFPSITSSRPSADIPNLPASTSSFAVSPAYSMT
Procedure: as §1

[9] = molecular target: T5, mouse MuSK, endogenous (C2C12 myotubes; …); test: cell-based or functional assay
rat MuSK [10] = molecular target: T6, rat MuSK; test: Biacore, MuSK on chip, association pH 7.4, dissociation pH 5.5
Procedure: as §1
(§2) In order to study pH dependent binding of our antibodies to MuSK, the same Biacore was used as above, but now dissociation was done at pH 5.5 instead of pH 7.4. […] The following conclusions could be drawn for the different variants: (1) 3B2g1m3 and 3B2g2m3 (m3 variants) show significant drop in affinity for MuSK for all species tested; (2) 3B2g1m2 and 3B2g2m2 (m2 variants) show some drop in affinity for MuSK; (3) 3B2g1m1, 3B2g2m1, 3B2g1m4, 3B2g2m4 (m1 and m4 variants) show no drop in affinity for MuSK for all species tested; and (4) for all clones there is no difference between g1 and g2 variants (VL methionine versus serine in CDR3).

cynomolgus monkey MuSK [11] = molecular target: T7, cynomolgus monkey MuSK; test: as above
Procedure: as §1, §2

mouse MuSK [12] = molecular target: T8, mouse MuSK; test: as above
Procedure: as §1, §2

mouse MuSK [13] = molecular target: T8, mouse MuSK; test: Biacore, MuSK on chip, association pH 7.4, dissociation pH 5.5; association at pH 7.4, dissociation at pH 5.5
Procedure: as §1, §2

T7 sequence (A0A2K5USF6 entry or part of it): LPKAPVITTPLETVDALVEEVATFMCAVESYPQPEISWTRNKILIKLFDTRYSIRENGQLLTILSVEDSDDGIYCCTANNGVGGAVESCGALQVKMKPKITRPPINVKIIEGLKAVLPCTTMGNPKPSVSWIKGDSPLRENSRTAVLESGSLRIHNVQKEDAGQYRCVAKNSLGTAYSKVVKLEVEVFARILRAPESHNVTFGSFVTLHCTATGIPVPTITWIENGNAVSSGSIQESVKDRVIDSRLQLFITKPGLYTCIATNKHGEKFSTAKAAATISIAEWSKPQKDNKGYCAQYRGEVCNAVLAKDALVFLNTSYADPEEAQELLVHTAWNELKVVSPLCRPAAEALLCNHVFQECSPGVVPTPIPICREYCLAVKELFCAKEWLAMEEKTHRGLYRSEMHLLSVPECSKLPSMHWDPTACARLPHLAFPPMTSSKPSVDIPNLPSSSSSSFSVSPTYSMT

Kd [1]: 0.97 nM | Kd [2]: 0.74 nM | Kd [3]: 1.1 nM | Kd [4]: 0.61 nM | EC50 (read off the curve) [5]: ~0.5 mg/kg
B1: mIgG2a-X17 (antibody, V domains shown)
VH: EVQLVESGGGLVQPGGSLRLSCAASGFTISYSSIHWVRQAPGKGLEWVASIYSSSGSTYYADSVKGRFTISADTSKNTAYLQMNSLRAEDTAVYYCARGDHGYYVFGYLGMDYWGQGTLVTVSS
VL: DIQMTQSPSSLSASVGDRVTITCRASQSVSSAVAWYQQKPGKAPKLLIYSASSLYSGVPSRFSGSRSGTDFTLTISSLQPEDFATYYCQQSYKPGALITFGQGTKVEIK
notes: chimeric antibody of a human Fab (human CH1) and mouse IgG2a Fc with the LALAPG mutations; also called X17-mIgG2a-LALAPG; antibody X17

R0 (rat MuSK [6]): 125 RU | koff (rat MuSK [6]): 0.00314 s⁻¹ | kon (rat MuSK [6]): 1.45e+06 M⁻¹ s⁻¹ | R0 (cynomolgus monkey MuSK [7]): 133 RU | koff (cynomolgus monkey MuSK [7]): 0.00183 s⁻¹ | kon (cynomolgus monkey MuSK [7]): 850000 M⁻¹ s⁻¹ | R0 (mouse MuSK [8]): 155 RU | koff (mouse MuSK [8]): 0.00253 s⁻¹ | kon (mouse MuSK [8]): 1.61e+06 M⁻¹ s⁻¹ | MuSK phosphorylation in C2C12 myotubes [9]: ~80 % of 1 nM agrin | R0 (rat MuSK [10]): 136 RU | koff (rat MuSK [10]): 0.0865 s⁻¹ | kon (rat MuSK [10]): 40000 M⁻¹ s⁻¹ | R0 (cynomolgus monkey MuSK [11]): 148 RU | koff (cynomolgus monkey MuSK [11]): 0.0034 s⁻¹ | kon (cynomolgus monkey MuSK [11]): 800000 M⁻¹ s⁻¹ | R0 (mouse MuSK [12]): 152 RU | kon (mouse MuSK [12]): 70000 M⁻¹ s⁻¹ | koff (mouse MuSK [13]): 0.00915 s⁻¹
B2: 3B2g1m2 (antibody, human IgG1, V domains shown)
VH: EVQLLESGGGLVQPGGSLRLSCAASGFTFSDYGMSWVRQAPGKGLEWVSAIPGSGGSTYYKESVKGRFTISRDNSKNTLYLQMNSLRAEDTAVYYCAKRSGRIAFGALDAWGQGTLVTVSS
VL: QTVVTQEPSFSVSPGGTVTLTCGLSSGSVTSSNYPDWYQQTPGQAPRTLIYSTDSRHSGVPDRFSGSILGNKAALTITGAQADDESDYYCGLYMYSGSKNYVFGGGTKLTVL
notes: human IgG1-LALA backbone; produced in HEK293 cells
